From the supplement of paper PMC10899765 come the findings set out here.

Holding throughout (details): 20 nM; 72 h
Data set [1] deals with MCF10A. Put plainly: one-nucleolus phenotype percent effect (relative to siNT 0% and siNOL11 100%); higher = more cells with one nucleolus (ribosome biogenesis inhibition). As to the method: (§1)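 After 72 h, cells were fixed and stained with Hoechst and anti-fibrillarin, and nucleoli per nucleus were counted with CellProfiler. Values are plate-adjusted percent effect for the one-nucleolus and 5+ nucleoli phenotypes, normalised to siNT (0%) and to the positive controls siNOL11 or siKIF11 (100%), as the mean of biological triplicates. Percent viability is the nuclei count relative to siNT.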

Data set [2] has as its system MCF10A. Put plainly: percent viability (nuclei count relative to siNT); higher = more viable cells. As to the method: as §1
For data set [3], the system named is MCF10A. Put plainly: 5+ nucleoli phenotype percent effect (relative to siNT 0% and siKIF11 100%); higher = more cells with five or more nucleoli. The method, then:
as §1

Several values for one entry are separate records, joined by “and”; a condition that tells them apart may be missing. Equal values may be shown once.

Consider GCUCGGACUGAGCAGGUGGG [hsa-miR-3917], for which, in data set [1], the “one-nucleolus phenotype percent effect” value was -20.1%. In addition, the percent viability in data set [2] came out at 57.6%. Besides, the “5+ nucleoli phenotype percent effect” value in data set [3] is 32.5%.
On to UCUAGUAAGAGUGGCAGUCGA [hsa-miR-628-3p], for which, in data set [1], the “one-nucleolus phenotype percent effect” value was -7.59%. Further, the percent viability in data set [2] worked out at 55.8%. Moreover, in data set [3], the “5+ nucleoli phenotype percent effect” value was 31.5%.
With UCGCCUCCUCCUCUCCC [hsa-miR-1281], the “one-nucleolus phenotype percent effect” value in data set [1] is 10.9%. The percent viability in data set [2] was determined as 60.9%. Moreover, in data set [3], the “5+ nucleoli phenotype percent effect” value was -24.6%.
With UGGAAUGUAAAGAAGUAUGUAU [hsa-miR-1], the “one-nucleolus phenotype percent effect” value in data set [1] was determined as 8.45%. Further, the percent viability in data set [2] was determined as 38.5%. The “5+ nucleoli phenotype percent effect” value in data set [3] was -15.8%.
Taken in the same sequence, the figures for GUCACUGAUGUCUGUAGCUGAG [hsa-miR-4420] were -18.2%, 87.4% and 1.76%.
Taken in the same sequence, the figures for CAGCAGCACACUGUGGUUUGU [hsa-miR-497-5p] were 50.2%, 15.2% and -38.4%.
Take GGGGCUGGGCGCGCGCC [hsa-miR-4492]: the “one-nucleolus phenotype percent effect” value in data set [1] is 24.8%. Moreover, the percent viability in data set [2] was determined as 33.5%. Moreover, the “5+ nucleoli phenotype percent effect” value in data set [3] was -0.324%.
AAAGGUGCUCAAAUUAGACAU [hsa-miR-4735-3p]: the “one-nucleolus phenotype percent effect” value in data set [1] worked out at 43%. Moreover, the percent viability in data set [2] amounted to 21.4%. The “5+ nucleoli phenotype percent effect” value in data set [3] was -26.8%.
On the same counts, the results for UUGUCUGCUGAGUUUCC [hsa-miR-4288] are 27.6%, 31.9% and -15.9%.
Taken in the same sequence, the figures for UCUCUCUGACUCCAUGGCA [hsa-miR-6817-3p] were 1.99%, 39.3% and 1.83%.
Taken in the same sequence, the figures for ACGGAGACGACAAGACUGUGCUG [hsa-miR-5091] were 3.3%, 32.1% and -11.8%.
Turning to GCCCUCCGCCCGUGCACCCCG [hsa-miR-1470], in data set [1], the “one-nucleolus phenotype percent effect” value is -19.6%. Moreover, the percent viability in data set [2] amounted to 113%. Moreover, the “5+ nucleoli phenotype percent effect” value in data set [3] was found to be 45.2%.
Consider “CCUCUGAAAUUCAGUUCUUCAG [hsa-miR-146a-3p]”, for which the “one-nucleolus phenotype percent effect” value in data set [1] was -13.5%. The percent viability in data set [2] was 125%. The “5+ nucleoli phenotype percent effect” value in data set [3] was determined as 27.1%.
As to GUUGUGUCAGUUUAUCAAAC [hsa-miR-599], the “one-nucleolus phenotype percent effect” value in data set [1] was -13.5%. Besides, in data set [2], the percent viability is 84.3%. Also, the “5+ nucleoli phenotype percent effect” value in data set [3] worked out at 29.3%.
As for CAAAGUGCUUACAGUGCAGGUAG [hsa-miR-17-5p], the “one-nucleolus phenotype percent effect” value in data set [1] was -20.9%. Moreover, the percent viability in data set [2] is 71.5%. Moreover, the “5+ nucleoli phenotype percent effect” value in data set [3] amounted to 27.3%.
In the case of “AUGUAGGGCUAAAAGCCAUGGG [hsa-miR-135b-3p]”, the “one-nucleolus phenotype percent effect” value in data set [1] was 6.54%. Besides, the percent viability in data set [2] was 14.3%. Besides, in data set [3], the “5+ nucleoli phenotype percent effect” value was determined as 10.5%.
On the same counts, the results for AAAAGCAUCAGGAAGUACCCA [hsa-miR-4422] are -9.65%, 58.8% and 2.92%.
On the same counts, the results for UGACCGAUUUCUCCUGGUGUUC [hsa-miR-29c-5p] are 21.1%, 105% and -8.5%.
Take ACUGUAAACGCUUUCUGAUG [hsa-miR-3607-3p]: in data set [1], the “one-nucleolus phenotype percent effect” value is -18.5%. The percent viability in data set [2] amounted to 124%. In addition, the “5+ nucleoli phenotype percent effect” value in data set [3] was determined as 42.2%.
Taken in the same sequence, the figures for CUGGGGAGUGGCUGGGGAG [hsa-miR-6763-5p] were 30.5%, 29.7% and -2.28%.
Taken in the same sequence, the figures for CUGGGACAGGAGGAGGAGGCAG [hsa-miR-4298] were -17.4%, 67.8% and 39.2%.
As for GAAGAACUGUUGCAUUUGCCCU [hsa-miR-4511], in data set [1], the “one-nucleolus phenotype percent effect” value is -30.8%. For the same sequence, in data set [2], the percent viability amounted to 121%. For the same sequence, in data set [3], the “5+ nucleoli phenotype percent effect” value stood at 26.2%.
Taken in the same sequence, the figures for CCAAUAUUGGCUGUGCUGCUCC [hsa-miR-195-3p] were -16.1%, 142% and 27.5%.
Turning to ACAGGGCCGCAGAUGGAGACU [hsa-miR-3918], in data set [1], the “one-nucleolus phenotype percent effect” value worked out at 50.3%. The percent viability in data set [2] is 8.55%. Besides, the “5+ nucleoli phenotype percent effect” value in data set [3] was -31.2%.
On to UGGAGAGAGAAAAGAGACAGAAG [hsa-miR-4644], for which the “one-nucleolus phenotype percent effect” value in data set [1] was -24.6%. Also, the percent viability in data set [2] was determined as 74.5%. Also, the “5+ nucleoli phenotype percent effect” value in data set [3] worked out at 39.4%.
On the same counts, the results for UGAGGUAGUAGUUUGUGCUGUU [hsa-let-7i-5p] are -11.8%, 16.5% and 23.9%.
Taken in the same sequence, the figures for AGGAAAUGAGGCUGGCUAGGAGC [hsa-miR-5093] were 23.8%, 25.8% and 0.0169%.
Taken in the same sequence, the figures for UUCAACGGGUAUUUAUUGAGCA [hsa-miR-95] were -0.724%, 69.8% and 9.5%.
UCCCCUUCCUCCCUGCCCAG [hsa-miR-6756-3p]: the “one-nucleolus phenotype percent effect” value in data set [1] is -12.3%. Besides, in data set [2], the percent viability stood at 51.9%. For the same sequence, the “5+ nucleoli phenotype percent effect” value in data set [3] came out at 16.4%.
Taken in the same sequence, the figures for “UAGCACCAUUUGAAAUCAGUGUU [hsa-miR-29b-3p]” were -20.6%, 63.7% and 20.2%.
Taken in the same sequence, the figures for AGGAGGCAUCUUGAGAAAUGGA [hsa-miR-3612] were 33.4%, 16.9% and 5.34%.
Taken in the same sequence, the figures for UCAGUUCCAGGCCAACCAGGCU [hsa-miR-584-3p] were 19.6%, 43.9% and 3.58%.
On to UGUUCAUGUAGAUGUUUAAGC [hsa-miR-1206], for which the “one-nucleolus phenotype percent effect” value in data set [1] was -22.5%. Further, in data set [2], the percent viability amounted to 95.8%. In addition, in data set [3], the “5+ nucleoli phenotype percent effect” value came to 42.5%.
For UGGCCCUUUGUACCCCUCCAG [hsa-miR-6851-3p], in data set [1], the “one-nucleolus phenotype percent effect” value is -21.4%. Moreover, the percent viability in data set [2] came to 49.2%. For the same sequence, the “5+ nucleoli phenotype percent effect” value in data set [3] was 54.7%.
For AUGUGGGCUCAGGCUCA [hsa-miR-4296], in data set [1], the “one-nucleolus phenotype percent effect” value stood at 44.2%. Further, the percent viability in data set [2] is 26.9%. Also, the “5+ nucleoli phenotype percent effect” value in data set [3] is -35.4%.
On the same counts, the results for GCCUGCUGGGGUGGAACCUGGU [hsa-miR-370] are 12.5%, 45.3% and -25.5%.
For GGGGCUGUGAUUGACCAGCAGG [hsa-miR-4675], the “one-nucleolus phenotype percent effect” value in data set [1] came out at 10.5%. In data set [2], the percent viability was 24.1%. Besides, in data set [3], the “5+ nucleoli phenotype percent effect” value was -11.5%.
Taken in the same sequence, the figures for “UUGGGAUCAUUUUGCAUCCAUA [hsa-miR-450b-3p]” were -1.71%, 42.8% and -2.46%.
Taken in the same sequence, the figures for CUGUGCGUGUGACAGCGGCUGA [hsa-miR-210] were -1.99%, 56.6% and -13.9%.
For AGGACUGGACUCCCGGCAGCCC [hsa-miR-4515], the “one-nucleolus phenotype percent effect” value in data set [1] worked out at 15.9%. The percent viability in data set [2] was 37.2%. In addition, the “5+ nucleoli phenotype percent effect” value in data set [3] is -14.9%.
On the same counts, the results for GGAGGUUGGGAAGGGCAGAG [hsa-miR-6086] are -8.13%, 69.1% and 0.449%.
For the sequence “CCUGGGCAGCGUGUGGCUGAAGG [hsa-miR-3187-5p]”, the “one-nucleolus phenotype percent effect” value in data set [1] was -3.44%. Moreover, the percent viability in data set [2] was found to be 66.4%. In addition, in data set [3], the “5+ nucleoli phenotype percent effect” value is 41.1%.
Consider CUGUCCUAAGGUUGUUGAGUU [hsa-miR-676-3p], for which the “one-nucleolus phenotype percent effect” value in data set [1] was -12%. The percent viability in data set [2] came to 20.8%. The “5+ nucleoli phenotype percent effect” value in data set [3] turned out to be 29.3%.
For CUUUCAGUCGGAUGUUUGCAGC [hsa-miR-30a-3p], in data set [1], the “one-nucleolus phenotype percent effect” value was 1.29%. Also, in data set [2], the percent viability is 86.1%. In addition, the “5+ nucleoli phenotype percent effect” value in data set [3] was -31%.
UCCAGUGCCCUCCUCUCC [hsa-miR-1825]: in data set [1], the “one-nucleolus phenotype percent effect” value is -8.72%. Besides, the percent viability in data set [2] was found to be 70.3%. Also, in data set [3], the “5+ nucleoli phenotype percent effect” value was -2.13%.
For the sequence AACCUUGGCCCCUCUCCCCAG [hsa-miR-6813-3p], the “one-nucleolus phenotype percent effect” value in data set [1] is -35.3%. Further, in data set [2], the percent viability turned out to be 75.9%. For the same sequence, in data set [3], the “5+ nucleoli phenotype percent effect” value was found to be 67.7%.
Turning to GAGUGUAGUUCUGAGCAGAGC [hsa-miR-4280], in data set [1], the “one-nucleolus phenotype percent effect” value came out at 18.3%. The percent viability in data set [2] worked out at 29.9%. In addition, in data set [3], the “5+ nucleoli phenotype percent effect” value was -17.9%.
In the case of AAAAACUGUAAUUACUUUU [hsa-miR-548f], the “one-nucleolus phenotype percent effect” value in data set [1] was -26.8% and -24.7% and -21.2%. Moreover, the “5+ nucleoli phenotype percent effect” value in data set [3] is 53.7% and 60% and 60.4%.
On to GCGGCGAGUCCGACUCAU [hsa-miR-4285], for which the “one-nucleolus phenotype percent effect” value in data set [1] was -17.6% and -20.2%. Besides, in data set [3], the “5+ nucleoli phenotype percent effect” value is 32.6% and 20.7%.
